Reference: patent US20190127444A1 (NEW YORK UNIVERSITY, published 2019)

Experiments:
[1] = biological target: T1, LukAB toxoid variant (LukA E323A), recombinant polyhistidine-tagged (S. aureus, UniProt Q2FFA2 28-351; P21224 30-338); assay: SPR (Biacore T200)
T1 sequence 1: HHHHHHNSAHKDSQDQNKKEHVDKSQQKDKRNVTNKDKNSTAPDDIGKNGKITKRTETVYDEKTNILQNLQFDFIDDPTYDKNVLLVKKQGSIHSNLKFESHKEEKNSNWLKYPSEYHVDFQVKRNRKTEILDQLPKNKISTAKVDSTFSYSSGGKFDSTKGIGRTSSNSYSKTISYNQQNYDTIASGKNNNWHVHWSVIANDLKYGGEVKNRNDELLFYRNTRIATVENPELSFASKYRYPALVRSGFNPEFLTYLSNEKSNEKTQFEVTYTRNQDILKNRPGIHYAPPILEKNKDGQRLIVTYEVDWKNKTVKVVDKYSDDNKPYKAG
T1 sequence 2: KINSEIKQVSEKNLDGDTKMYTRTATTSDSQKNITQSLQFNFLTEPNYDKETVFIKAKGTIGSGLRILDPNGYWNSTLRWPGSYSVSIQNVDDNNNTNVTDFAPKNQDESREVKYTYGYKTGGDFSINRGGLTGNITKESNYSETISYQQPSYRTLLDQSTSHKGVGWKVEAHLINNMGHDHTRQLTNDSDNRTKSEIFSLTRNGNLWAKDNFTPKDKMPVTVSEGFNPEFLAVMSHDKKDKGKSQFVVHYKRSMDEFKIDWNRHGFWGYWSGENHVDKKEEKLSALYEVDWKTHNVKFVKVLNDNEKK

[2] = biological target: T1, LukAB toxoid variant (LukA E323A), …; assay: SPR (Biacore T200), single cycle kinetics, 1:1 model
[3] = biological target: T1, LukAB toxoid variant (LukA E323A), …; assay: ELISA, biotinylated toxin on streptavidin plate
[4] = biological target: T1, LukAB toxoid variant (LukA E323A), …; assay: SPR (Biacore T200), construct captured via anti-human Fc, LukAB as analyte
[5] = biological target: T1, LukAB toxoid variant (LukA E323A), …; assay: BLI, FN3 protein on streptavidin pins, LukAB toxoid at 10 ug/mL
[6] = biological target: T2, Human serum albumin conjugated with biotin (Rockland 009-0633) (human, UniProt P02768 25-609); assay: ELISA, biotinylated HSA on streptavidin plate
T2 construct: also called HSA
T2 sequence (P02768 25-609 limits assumed): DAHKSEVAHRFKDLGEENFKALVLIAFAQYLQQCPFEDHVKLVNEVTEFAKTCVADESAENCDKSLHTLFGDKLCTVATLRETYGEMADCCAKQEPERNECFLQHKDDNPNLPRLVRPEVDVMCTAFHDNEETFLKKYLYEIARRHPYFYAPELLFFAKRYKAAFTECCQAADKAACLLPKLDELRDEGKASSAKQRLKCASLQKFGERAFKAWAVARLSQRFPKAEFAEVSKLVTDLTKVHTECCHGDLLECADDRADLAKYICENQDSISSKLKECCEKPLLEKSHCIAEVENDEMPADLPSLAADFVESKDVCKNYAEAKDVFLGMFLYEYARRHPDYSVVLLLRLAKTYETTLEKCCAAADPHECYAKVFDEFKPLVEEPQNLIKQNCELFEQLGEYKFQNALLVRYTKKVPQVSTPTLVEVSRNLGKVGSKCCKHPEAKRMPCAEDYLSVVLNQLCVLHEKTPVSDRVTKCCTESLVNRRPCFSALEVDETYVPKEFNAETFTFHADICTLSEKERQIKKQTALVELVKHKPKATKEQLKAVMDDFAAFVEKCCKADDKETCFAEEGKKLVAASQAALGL

B1: mAb 5133 PRASA A6 HC-L4-E-L4-AB (Table 1 Construct 11) (bispecific antibody)
heavy: EVQLVETGGGLVKPGGSLRLSCSASRFSFRDYYMTWIRQAPGKGPEWVSHISGSGSTIYYADSVRGRFTISRDNAKSSLYLQMDSLQADDTAVYYCARGGRATSYYWVHWGPGTLVTVSSASTKGPSVFPLAPSSKSTSGGTAALGCLVKDYFPEPVTVSWNSGALTSGVHTFPAVLQSSGLYSLSSVVTVPSSSLGTQTYICNVNHKPSNTKVDKKVEPKSCDKTHTCPPCPAPPVAGPDVFLFPPKPKDTLMISRTPEVTCVVVDVSHEDPEVKFNWYVDGVEVHNAKTKPREEQYNSTYRVVSVLTVLHQDWLNGKEYKCKVSNAALPAPIAKTISKAKGQPREPQVYTLPPSRDELTKNQVSLTCLVKGFYPSDIAVEWESNGQPENNYKTTPPVLDSDGSFFLYSKLTVDKSRWQQGNVFSCSVMHEALHNRFTQKSLSLSPGKGGGGSGGGGSGGGGSGGGGSMLPAPKNLVVSRVTEDSARLSWTAPDAAFDSFHIEYAEPWVWGEAIVLTVPGSERSYDLTGLKPGTEYVVFIGGVKGGHNSTPLSAIFTTGGGGSGGGGSGGGGSGGGGSMLPAPKNLVVSRVTEDSARLSWTAPDAAFDSFWITYEEKFYRGEAIVLTVPGSERSYDLTGLKPGTEYKVWIVGVKGGQGSWPLSAIFTT
light: EIVLTQSPATLSLSPGERATLSCRASQSVSGYLGWYQQKPGQAPRLLIYGASSRATGIPDRFSGSGSGTDFTLTISRLEPEDFAVYYCQQYGSSPLTFGGGTKLEIKRTVAAPSVFIFPPSDEQLKSGTASVVCLLNNFYPREAKVQWKVDNALQSGNSQESVTEQDSKDSTYSLSSTLTLSKADYEKHKVYACEVTHQGLSSPVTKSFNRGEC
notes: also called CR5133 PRASA A6 HC-L4-E-L4-AB; 4×4 variant
Question: Which “fold higher binding affinity than Construct 6” value [1] does the source give for B1 here?
Answer: The value was about 6 fold.

Question: What about the Kd [2] of the same binder?
Answer: The Kd was 0.012 nM.

B2: 3×4 linker variant of Construct 11 (bispecific antibody)
heavy: EVQLVETGGGLVKPGGSLRLSCSASRFSFRDYYMTWIRQAPGKGPEWVSHISGSGSTIYYADSVRGRFTISRDNAKSSLYLQMDSLQADDTAVYYCARGGRATSYYWVHWGPGTLVTVSSASTKGPSVFPLAPSSKSTSGGTAALGCLVKDYFPEPVTVSWNSGALTSGVHTFPAVLQSSGLYSLSSVVTVPSSSLGTQTYICNVNHKPSNTKVDKKVEPKSCDKTHTCPPCPAPPVAGPDVFLFPPKPKDTLMISRTPEVTCVVVDVSHEDPEVKFNWYVDGVEVHNAKTKPREEQYNSTYRVVSVLTVLHQDWLNGKEYKCKVSNAALPAPIAKTISKAKGQPREPQVYTLPPSRDELTKNQVSLTCLVKGFYPSDIAVEWESNGQPENNYKTTPPVLDSDGSFFLYSKLTVDKSRWQQGNVFSCSVMHEALHNRFTQKSLSLSPGKGGGGSGGGGSGGGGSMLPAPKNLVVSRVTEDSARLSWTAPDAAFDSFHIEYAEPWVWGEAIVLTVPGSERSYDLTGLKPGTEYVVFIGGVKGGHNSTPLSAIFTTGGGGSGGGGSGGGGSGGGGSMLPAPKNLVVSRVTEDSARLSWTAPDAAFDSFWITYEEKFYRGEAIVLTVPGSERSYDLTGLKPGTEYKVWIVGVKGGQGSWPLSAIFTT
light: EIVLTQSPATLSLSPGERATLSCRASQSVSGYLGWYQQKPGQAPRLLIYGASSRATGIPDRFSGSGSGTDFTLTISRLEPEDFAVYYCQQYGSSPLTFGGGTKLEIKRTVAAPSVFIFPPSDEQLKSGTASVVCLLNNFYPREAKVQWKVDNALQSGNSQESVTEQDSKDSTYSLSSTLTLSKADYEKHKVYACEVTHQGLSSPVTKSFNRGEC
Question: Does B2 bind [3]?
Answer: Result: binds

B3: mAb 5133 PRASA A6 (CR5133 PRASA A6; Table 1 Construct 4) (antibody)
heavy: EVQLVETGGGLVKPGGSLRLSCSASRFSFRDYYMTWIRQAPGKGPEWVSHISGSGSTIYYADSVRGRFTISRDNAKSSLYLQMDSLQADDTAVYYCARGGRATSYYWVHWGPGTLVTVSSASTKGPSVFPLAPSSKSTSGGTAALGCLVKDYFPEPVTVSWNSGALTSGVHTFPAVLQSSGLYSLSSVVTVPSSSLGTQTYICNVNHKPSNTKVDKKVEPKSCDKTHTCPPCPAPPVAGPDVFLFPPKPKDTLMISRTPEVTCVVVDVSHEDPEVKFNWYVDGVEVHNAKTKPREEQYNSTYRVVSVLTVLHQDWLNGKEYKCKVSNAALPAPIAKTISKAKGQPREPQVYTLPPSRDELTKNQVSLTCLVKGFYPSDIAVEWESNGQPENNYKTTPPVLDSDGSFFLYSKLTVDKSRWQQGNVFSCSVMHEALHNRFTQKSLSLSPGK
light: EIVLTQSPATLSLSPGERATLSCRASQSVSGYLGWYQQKPGQAPRLLIYGASSRATGIPDRFSGSGSGTDFTLTISRLEPEDFAVYYCQQYGSSPLTFGGGTKLEIKRTVAAPSVFIFPPSDEQLKSGTASVVCLLNNFYPREAKVQWKVDNALQSGNSQESVTEQDSKDSTYSLSSTLTLSKADYEKHKVYACEVTHQGLSSPVTKSFNRGEC
notes: no FN3 domains
Question: Does B3 bind [4]?
Answer: Result: no binding (tested: 100 nM)

B4: mAb 5133 PRASA A6 HC-L4-E (Table 1 Construct 15) (bispecific antibody)
heavy: EVQLVETGGGLVKPGGSLRLSCSASRFSFRDYYMTWIRQAPGKGPEWVSHISGSGSTIYYADSVRGRFTISRDNAKSSLYLQMDSLQADDTAVYYCARGGRATSYYWVHWGPGTLVTVSSASTKGPSVFPLAPSSKSTSGGTAALGCLVKDYFPEPVTVSWNSGALTSGVHTFPAVLQSSGLYSLSSVVTVPSSSLGTQTYICNVNHKPSNTKVDKKVEPKSCDKTHTCPPCPAPPVAGPDVFLFPPKPKDTLMISRTPEVTCVVVDVSHEDPEVKFNWYVDGVEVHNAKTKPREEQYNSTYRVVSVLTVLHQDWLNGKEYKCKVSNAALPAPIAKTISKAKGQPREPQVYTLPPSRDELTKNQVSLTCLVKGFYPSDIAVEWESNGQPENNYKTTPPVLDSDGSFFLYSKLTVDKSRWQQGNVFSCSVMHEALHNRFTQKSLSLSPGKGGGGSGGGGSGGGGSGGGGSMLPAPKNLVVSRVTEDSARLSWTAPDAAFDSFHIEYAEPWVWGEAIVLTVPGSERSYDLTGLKPGTEYVVFIGGVKGGHNSTPLSAIFTT
light: EIVLTQSPATLSLSPGERATLSCRASQSVSGYLGWYQQKPGQAPRLLIYGASSRATGIPDRFSGSGSGTDFTLTISRLEPEDFAVYYCQQYGSSPLTFGGGTKLEIKRTVAAPSVFIFPPSDEQLKSGTASVVCLLNNFYPREAKVQWKVDNALQSGNSQESVTEQDSKDSTYSLSSTLTLSKADYEKHKVYACEVTHQGLSSPVTKSFNRGEC
notes: also called CR5133 PRASA A6 HC-L4-E
Question: Does B4 bind [4]?
Answer: Result: no binding (tested: 100 nM)

B5: mAb 5133 PRASA A6 HC-L4-AB (Table 1 Construct 6) (bispecific antibody)
heavy: EVQLVETGGGLVKPGGSLRLSCSASRFSFRDYYMTWIRQAPGKGPEWVSHISGSGSTIYYADSVRGRFTISRDNAKSSLYLQMDSLQADDTAVYYCARGGRATSYYWVHWGPGTLVTVSSASTKGPSVFPLAPSSKSTSGGTAALGCLVKDYFPEPVTVSWNSGALTSGVHTFPAVLQSSGLYSLSSVVTVPSSSLGTQTYICNVNHKPSNTKVDKKVEPKSCDKTHTCPPCPAPPVAGPDVFLFPPKPKDTLMISRTPEVTCVVVDVSHEDPEVKFNWYVDGVEVHNAKTKPREEQYNSTYRVVSVLTVLHQDWLNGKEYKCKVSNAALPAPIAKTISKAKGQPREPQVYTLPPSRDELTKNQVSLTCLVKGFYPSDIAVEWESNGQPENNYKTTPPVLDSDGSFFLYSKLTVDKSRWQQGNVFSCSVMHEALHNRFTQKSLSLSPGKGGGGSGGGGSGGGGSGGGGSMLPAPKNLVVSRVTEDSARLSWTAPDAAFDSFWITYEEKFYRGEAIVLTVPGSERSYDLTGLKPGTEYKVWIVGVKGGQGSWPLSAIFTT
light: EIVLTQSPATLSLSPGERATLSCRASQSVSGYLGWYQQKPGQAPRLLIYGASSRATGIPDRFSGSGSGTDFTLTISRLEPEDFAVYYCQQYGSSPLTFGGGTKLEIKRTVAAPSVFIFPPSDEQLKSGTASVVCLLNNFYPREAKVQWKVDNALQSGNSQESVTEQDSKDSTYSLSSTLTLSKADYEKHKVYACEVTHQGLSSPVTKSFNRGEC
notes: also called CR5133 PRASA A6 HC-L4-AB
Question: For B5, which Kd [2] is on record?
Answer: The Kd was 0.07 nM.

B6: Luk17-His-SA (designed binder)
chain: MLPAPKNLVVSRVTEDSARLSWTAPDAAFDSFWITYEEKFYRGEAIVLTVPGSERSYDLTGLKPGTEYKVWIVGVKGGQGSWPLSAIFTTGGHHHHHHGGGLNDIFEAQKIEWHE
Question: Does B6 bind [5]?
Answer: Result: binds

B7: Luk969 Hla binding FN3 domain, polyhistidine-tagged version (designed binder)
chain: LPAPKNLVVSRVTEDSARLSWNSEIAEQFFFDSFLIQYQESEKVGEAIVLTVPGSERSYDLTGLKPGTEYTVSIYGVWGHWDWYWKTSNPLSAIFTT
Question: Does B7 bind [6]?
Answer: Result: no binding (tested: 1 µM)

B8: Luk967 Hla binding FN3 domain, polyhistidine-tagged version (designed binder)
chain: LPAPKNLVVSRVTEDSARLSWEANAWDDVNFDSFLIQYQESEKVGEAIVLTVPGSERSYDLTGLKPGTEYTVSIYGVWNQTHYRWPSNPLSAIFTT
Question: Does B8 bind [6]?
Answer: Result: no binding (tested: 1 µM)

B9: Luk982 Hla binding FN3 domain, polyhistidine-tagged version (designed binder)
chain: LPAPKNLVVSRVTEDSARLSWTAPDAAFDSFAIGYPEYHDAGEAIHLFVPGSERSYDLTGLKPGTEYVVAIRGVKGGHASEPLHAHFTT
Question: Does B9 bind [6]?
Answer: Result: no binding (tested: 1 µM)

B10: Luk1012 Hla binding FN3 domain, polyhistidine-tagged version (designed binder)
chain: LPAPKNLVVSRVTEDSARLSWTAPDAAFDSFFILYVEYSVNGEAIELSVPGSERSYDLTGLKPGTEYDVIIGGVKGGNHSKPLVAFFTT
Question: Does B10 bind [6]?
Answer: Result: no binding (tested: 1 µM)

B11: Luk970 Hla binding FN3 domain, polyhistidine-tagged version (designed binder)
chain: LPAPKNLVVSRVTEDSARLSWNRGLIPFDSFLIQYQESEKVGEAIVLTVPGSERSYDLTGLKLGTEYTVSIYGVGTYYPWWPLSNPLSAIFTT
Question: Does B11 bind [6]?
Answer: Result: no binding (tested: 1 µM)
